Consider 1 molecule from article PMC9023255, “Mechanisms of substrate recognition and N6-methyladenosine demethylation revealed by crystal structures of ALKBH5–RNA complexes”.

The data set concerns the target ALKBH5 74-292 (human, UniProt Q6P6C2 74-292). Description: X-ray crystallography; Mn2+, sulfate in 2OG site (NOG added but not observed); 2.1 A, P32; GG(m6A)C ordered; Complex formation: 25 mM Tris pH 7.5, 400 uM protein, 333 uM RNA, 2 mM MnCl2, 2 or 10 mM NOG or 10 mM 2OG, on ice 30 min, then SEC in 25 mM Tris pH 7.5; mutant. To be noted: protein: recombinant; tags: N-terminal His6, removed by TEV protease; single strand.

Sequence of ALKBH5 74-292 (Q6P6C2 74-292): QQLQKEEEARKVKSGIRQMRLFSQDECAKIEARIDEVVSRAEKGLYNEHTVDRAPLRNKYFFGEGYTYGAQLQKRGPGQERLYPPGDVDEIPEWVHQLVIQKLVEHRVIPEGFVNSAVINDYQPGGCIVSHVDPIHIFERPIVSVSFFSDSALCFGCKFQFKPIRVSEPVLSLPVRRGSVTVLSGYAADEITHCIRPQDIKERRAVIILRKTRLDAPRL

B1: 8-mer m6A ssRNA (ssRNA)
RNA: UGGACUGC
modifications: N6-methyladenosine at position 4 (m6A)
In the case of B1, the binding result was “binds”.
